{
  "source": "paper PMC6219519",
  "key": {"[1]": {"biological_target": "(H3-H4)2 tetramer (wild type Xenopus laevis recombinant histones) (Xenopus laevis) (UniProt P84233)", "experiment": "FRET or BRET; single-molecule FRET with multi-parameter fluorescence detection, dynPDA and trace analysis, global four-state kinetic model; IβIα-wt nucleosomes on 170 bp Widom 601 DNA (dyes on the DNA), 20 pM labelled, total concentration varied with unlabelled nucleosomes; 150 mM NaCl, TE buffer pH 7.5, 1 mM ascorbic acid, 0.01% Nonidet P40; hexasome and tetramer stand on the DNA"}, "[2]": {"biological_target": "hexasome: (H3-H4)2 tetramer with one H2A-H2B dimer on 170 bp Widom 601 DNA (Xenopus laevis) (UniProt P84233)", "experiment": "FRET or BRET; single-molecule FRET with multi-parameter fluorescence detection, dynPDA and trace analysis, global four-state kinetic model; IβIα-wt nucleosomes on 170 bp Widom 601 DNA (dyes on the DNA), 20 pM labelled, total concentration varied with unlabelled nucleosomes; 150 mM NaCl, TE buffer pH 7.5, 1 mM ascorbic acid, 0.01% Nonidet P40; hexasome and tetramer stand on the DNA"}},
  "data": [
    {"substance": "H2A-H2B dimer (wild type Xenopus laevis recombinant histones) (from UniProt P06897 2-120; P02281 2-126) (complex)", "values": [
      {"measurement": "Kd", "setting": "[1]", "result": "> 0.002", "unit": "nM"},
      {"measurement": "relaxation time tR of hexasome/tetrasome exchange (estimated for [H2A-H2B] ≈10 pM)", "setting": "[1]", "result": "> 10000", "unit": "s"},
      {"measurement": "Kd", "setting": "[2]", "result": 0.039, "unit": "nM"},
      {"measurement": "relaxation time tR of octasome/hexasome exchange (estimated for [H2A-H2B] ≈10 pM)", "setting": "[2]", "result": "< 300", "unit": "s"}
    ]}
  ]
}
